The numbers were not newly measured in paper PMC7617445, which cites them from elsewhere.

This data set has as its target IL-18 (Homo sapiens) (UniProt Q14116).

Chain of IL-18BP (O95998 31-194): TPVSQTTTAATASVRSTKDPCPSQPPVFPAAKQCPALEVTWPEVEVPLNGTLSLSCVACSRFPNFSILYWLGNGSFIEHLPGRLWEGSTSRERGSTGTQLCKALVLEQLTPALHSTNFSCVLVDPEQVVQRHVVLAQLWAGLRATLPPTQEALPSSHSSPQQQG
Chain of IL-18 (Homo sapiens) (Q14116 37-193): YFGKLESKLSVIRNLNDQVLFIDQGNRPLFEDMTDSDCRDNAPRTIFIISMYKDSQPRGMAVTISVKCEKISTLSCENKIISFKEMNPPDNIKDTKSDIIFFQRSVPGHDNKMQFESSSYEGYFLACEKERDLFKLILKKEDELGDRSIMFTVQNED

As a reminder, the Kd is the equilibrium constant for the complex coming apart. With IL-18BP (from UniProt O95998), the Kd is 0.1 nM.
